Where “and” joins values, the source holds several entries; their conditions need not be identical. Equal entries are not always repeated. Where two headings read alike, the source gives them in different places.

The target of experiment [1] is T1, NRP1 (human, UniProt O14786). Put plainly: SPR. (In general: Surface plasmon resonance follows binding to a sensor surface in real time, without labels.)
The target of experiment [2] is T1, NRP1. The experiment can be described thus: ELISA.
Experiment [3] deals with T2, DLL4 (human, UniProt Q9NR61). Put plainly: SPR.
T2 sequence (Q9NR61 27-524): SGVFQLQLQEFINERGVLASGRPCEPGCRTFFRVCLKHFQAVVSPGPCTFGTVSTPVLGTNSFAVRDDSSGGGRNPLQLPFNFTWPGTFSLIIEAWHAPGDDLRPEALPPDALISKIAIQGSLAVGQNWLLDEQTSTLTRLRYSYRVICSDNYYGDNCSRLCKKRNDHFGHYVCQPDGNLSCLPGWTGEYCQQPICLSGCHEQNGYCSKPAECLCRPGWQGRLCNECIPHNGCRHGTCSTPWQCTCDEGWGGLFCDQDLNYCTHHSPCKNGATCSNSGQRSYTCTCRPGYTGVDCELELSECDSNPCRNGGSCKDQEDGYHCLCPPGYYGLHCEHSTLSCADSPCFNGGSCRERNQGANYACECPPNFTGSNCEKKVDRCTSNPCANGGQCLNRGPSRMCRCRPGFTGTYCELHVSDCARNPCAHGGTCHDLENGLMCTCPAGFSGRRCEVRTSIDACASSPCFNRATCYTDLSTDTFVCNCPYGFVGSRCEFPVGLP
Experiment [4] has as its target T2, DLL4. Put plainly: ELISA. A general note: ELISA stands for enzyme-linked immunosorbent assay.
Experiment [5] addresses T2, DLL4. The experiment can be described thus: ELISA. This is another data set of the same source.
Experiment [6] concerns the target T2, DLL4. Put plainly: competition.
Experiment [7] addresses T2, DLL4. The experiment can be described thus: ELISA. This is another data set of the same source.

B1: AB016 (antibody, V domains shown)
VH: EVQLVESGGGLVQPGGSLRLSCAASGFSFSSEPISWVRQAPGKGLEWVSSITGKNGYTYYADSVKGRFTISADTSKNTAYLQMNSLRAEDTAVYYCARWGKKVYGMDVWGQGTLVTVSS
VL: DIQMTQSPSSLSASVGDRVTITCRASQSISSYLAWYQQKPGKAPKLLIYGASSRASGVPSRFSGSGSGTDFTLTISSLQPEDFATYYCQQYMSVPITFGQGTKVEIKR
The molecule B1 had a Kd with NRP1 [1] of 2.67 nM. The same molecule gave an EC50 with NRP1 [2] of 0.58 nM.

B2: DVD050 NRP1 arm (antibody, V domains shown)
VH: EVQLVESGGGLVQPGGSLRLSCAASGFSFSSEPISWVRQAPGKGLEWVSSITGKNGYTYYADSVKGRFTISADTSKNTAYLQMNSLRAEDTAVYYCARWGKKVYGMDVWGQGTLVTVSS
VL: DIQMTQSPSSLSASVGDRVTITCRASQSISSYLAWYQQKPGKAPKLLIYGASSRASGVPSRFSGSGSGTDFTLTISSLQPEDFATYYCQQYMSVPITFGQGTKVEIKR
modifications: DVD-Ig outer
B2: in the experiment with NRP1 [1], the affinity, expressed as Kd, was 1.44 nM. In the experiment with NRP1 [2], this molecule had a concentration giving a half-maximal response (EC50) of 0.46 nM.

B3: DVD049 NRP1 arm (antibody, V domains shown)
VH: EVQLVESGGGLVQPGGSLRLSCAASGFSFSSEPISWVRQAPGKGLEWVSSITGKNGYTYYADSVKGRFTISADTSKNTAYLQMNSLRAEDTAVYYCARWGKKVYGMDVWGQGTLVTVSS
VL: DIQMTQSPSSLSASVGDRVTITCRASQSISSYLAWYQQKPGKAPKLLIYGASSRASGVPSRFSGSGSGTDFTLTISSLQPEDFATYYCQQYMSVPITFGQGTKVEIKR
modifications: DVD-Ig inner
As to B3, in the experiment with NRP1 [1], the Kd was 1.28 nM. In addition, in the experiment with NRP1 [2], the EC50 worked out at 0.5 nM.

B4: AB015 (antibody)
chain 1: EVQLVESGGGLVQPGGSLRLSCAASGFTFTDNWISWVRQAPGKGLEWVGYISPNSGFTYYADSVKGRFTISADTSKNTAYLQMNSLRAEDTAVYYCARDNFGGYFDYWGQGTLVTVSS
chain 2: DIQMTQSPSSLSASVGDRVTITCRASQDVSTAVAWYQQKPGKAPKLLIYSASFLYSGVPSRFSGSGSGTDFTLTISSLQPEDFATTYYCQQSYTGTVTFGQGTKVEIKR
B4 had a Kd with DLL4 [3] of 0.414 nM. Moreover, the half-maximal effective concentration (EC50) is 0.31 nM in the experiment with DLL4 [4] and 0.03 nM with DLL4 [5]. The 50% inhibitory concentration (IC50) with DLL4 [6] is 0.37 nM and 0.4 nM.

B5: DVD044 DLL4 arm (antibody)
chain 1: EVQLVESGGGLVQPGGSLRLSCAASGFTFTDNWISWVRQAPGKGLEWVGYISPNSGFTYYADSVKGRFTISADTSKNTAYLQMNSLRAEDTAVYYCARDNFGGYFDYWGQGTLVTVSS
chain 2: DIQMTQSPSSLSASVGDRVTITCRASQDVSTAVAWYQQKPGKAPKLLIYSASFLYSGVPSRFSGSGSGTDFTLTISSLQPEDFATTYYCQQSYTGTVTFGQGTKVEIKR
modifications: DVD-Ig outer
Take B5: in the experiment with DLL4 [3], binding was put at a Kd of 0.347 nM. Besides, the concentration giving a half-maximal response (EC50) with DLL4 [4] came to 0.53 nM; in the experiment with DLL4 [7] it was 0.25 nM; in the experiment with DLL4 [5], 0.06 nM. In the experiment with DLL4 [6], this molecule gave a 50% inhibitory concentration (IC50) of 0.5 nM.

B6: DVD043 DLL4 arm (antibody)
chain 1: EVQLVESGGGLVQPGGSLRLSCAASGFTFTDNWISWVRQAPGKGLEWVGYISPNSGFTYYADSVKGRFTISADTSKNTAYLQMNSLRAEDTAVYYCARDNFGGYFDYWGQGTLVTVSS
chain 2: DIQMTQSPSSLSASVGDRVTITCRASQDVSTAVAWYQQKPGKAPKLLIYSASFLYSGVPSRFSGSGSGTDFTLTISSLQPEDFATTYYCQQSYTGTVTFGQGTKVEIKR
modifications: DVD-Ig inner
Molecule B6 displayed a dissociation constant (Kd) in the experiment with DLL4 [3] of 2.32 nM. Further, the EC50 with DLL4 [4] amounted to 2.12 nM; with DLL4 [7], 0.67 nM; with DLL4 [5] it was 0.5 nM. The same molecule yielded an IC50 with DLL4 [6] of 13.1 nM.

The term Kd denotes the constant that tells how readily two partners part at equilibrium. Low readings indicate higher affinity, high ones lower affinity. The term EC50 denotes the concentration needed to bring the measured effect to its halfway point. High values mean a need for much substance, low ones an effect from little substance. For orientation: IC50 means the concentration that gives 50% inhibition. High values mean a need for much substance, low ones inhibition by little substance.

The values above are taken from patent US9029508 (dated 2015).
